Molecular target: hA3G-HA (human, UniProt Q9HC16 1-384)
Assay: co-IP

B1: hA3G W127A-EYFP (natural protein, human, UniProt Q9HC16 1-384, looked up)
chain: MKPHFRNTVERMYRDTFSYNFYNRPILSRRNTVWLCYEVKTKGPSRPPLDAKIFRGQVYSELKYHPEMRFFHWFSKWRKLHRDQEYEVTWYISWSPCTKCTRDMATFLAEDPKVTLTIFVARLYYFADPDYQEALRSLCQKRDGPRATMKIMNYDEFQHCWSKFVYSQRELFEPWNNLPKYYILLHIMLGEILRHSMDPPTFTFNFNNEPWVRGRHETYLCYEVERMHNDTWVLLNQRRGFLCNQAPHKHGFLEGRHAELCFLDVIPFWKLDLDQDYRVTCFTSWSPCFSCAQEMAKFISKNKHVSLCIFTARIYDDQGRCQEGLRTLAEAGAKISIMTYSEFKHCWDTFVDHQGCPFQPWDGLDEHSQDLSGRLRAILQNQEN
B1 was tested, and the “percent inhibition of binding to wild type hA3G (co-IP, band quantification)” value was about 80%.

B2: hA3G Y124A-EYFP (natural protein, human, UniProt Q9HC16 1-384, looked up)
chain: MKPHFRNTVERMYRDTFSYNFYNRPILSRRNTVWLCYEVKTKGPSRPPLDAKIFRGQVYSELKYHPEMRFFHWFSKWRKLHRDQEYEVTWYISWSPCTKCTRDMATFLAEDPKVTLTIFVARLAYFWDPDYQEALRSLCQKRDGPRATMKIMNYDEFQHCWSKFVYSQRELFEPWNNLPKYYILLHIMLGEILRHSMDPPTFTFNFNNEPWVRGRHETYLCYEVERMHNDTWVLLNQRRGFLCNQAPHKHGFLEGRHAELCFLDVIPFWKLDLDQDYRVTCFTSWSPCFSCAQEMAKFISKNKHVSLCIFTARIYDDQGRCQEGLRTLAEAGAKISIMTYSEFKHCWDTFVDHQGCPFQPWDGLDEHSQDLSGRLRAILQNQEN
With B2 the “percent inhibition of binding to wild type hA3G (co-IP, band quantification)” value was under 50%.

Reference: paper PMC5595295 (Acta Pharmaceutica Sinica. B, 2017)
